Holding throughout (assay): flow cytometry, 100 nM antibody, transiently transfected HEK cells, APC anti-human Fc
A general note: Flow cytometry measures light scatter and fluorescence of single cells or particles in a stream.

The target in one test is T1, HEK-TROP2 Δ27-96 (human, UniProt P09758).
T1 construct: deletion of residues 27-96, transiently expressed on HEK cells
T1 sequence (membrane protein on transfected HEK cells, looked up): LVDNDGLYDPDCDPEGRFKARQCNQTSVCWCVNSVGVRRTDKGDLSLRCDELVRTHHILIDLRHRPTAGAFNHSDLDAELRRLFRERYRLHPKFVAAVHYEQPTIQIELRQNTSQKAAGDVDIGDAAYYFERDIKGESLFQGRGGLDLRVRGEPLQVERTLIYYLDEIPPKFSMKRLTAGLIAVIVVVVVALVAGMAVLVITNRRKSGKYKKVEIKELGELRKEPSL
As for the experimental part: (§1) To determine the effect of TROP2 truncations on the binding ability of anti-TROP2 sdAbs, the HEK parental cells were transiently transfected with human TROP2 mutants by lipofectamine. 24 hours after transfection, cells were collected and stained with anti-TROP2 antibodies (FIG. 13A and FIG. 13B). In brief, 1×10⁵ cells were incubated with an Fc receptor blocking antibody (1/100 dilution) for 10 minutes at room temperature. Anti-TROP2 antibodies were diluted in FACS staining buffer to 100 nM and added and incubated with cells for 30 minutes on ice. After washing three times with FACS staining buffer, APC-conjugated secondary antibodies recognizing the human Fc region (Biolegend, Cat #410712) were mixed with cells. After staining for 30 minutes, cells were washed three times, followed by resuspension into 100 μL of 7-Amino-Actinomycin D (7-AAD) solution (BD Biosciences, Cat #559925).

The target of test [1] is T2, TROP2 delta 27-56 on HEK cells (human, UniProt P09758 1-323).
T2 construct: Human TROP2 with residues 27-56 deleted, transiently transfected into HEK cells; also called TROP2 with 27-56 regions truncated
T2 chain: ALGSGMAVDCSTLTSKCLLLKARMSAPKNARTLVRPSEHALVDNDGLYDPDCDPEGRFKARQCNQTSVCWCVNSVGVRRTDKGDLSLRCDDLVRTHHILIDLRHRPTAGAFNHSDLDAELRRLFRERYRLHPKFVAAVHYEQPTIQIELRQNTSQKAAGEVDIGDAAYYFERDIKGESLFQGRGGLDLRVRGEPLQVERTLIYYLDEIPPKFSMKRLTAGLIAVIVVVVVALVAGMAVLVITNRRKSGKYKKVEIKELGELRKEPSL
As for the experimental part: as §1

Another test addresses T3, HEK-TROP2 Δ27-114 (human, UniProt P09758).
T3 construct: deletion of residues 27-114, transiently expressed on HEK cells
T3 sequence (membrane protein on transfected HEK cells, looked up): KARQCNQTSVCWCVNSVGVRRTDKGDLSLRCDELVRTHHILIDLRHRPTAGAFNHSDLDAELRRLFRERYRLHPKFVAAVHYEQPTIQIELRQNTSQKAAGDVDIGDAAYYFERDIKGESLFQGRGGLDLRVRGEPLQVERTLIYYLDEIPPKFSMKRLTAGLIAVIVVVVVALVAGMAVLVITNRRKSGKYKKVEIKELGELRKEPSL
As for the experimental part: as §1

The target of the next test is T4, HEK-TROP2 Δ27-126 (human, UniProt P09758).
T4 construct: deletion of residues 27-126, transiently expressed on HEK cells
T4 sequence (membrane protein on transfected HEK cells, looked up): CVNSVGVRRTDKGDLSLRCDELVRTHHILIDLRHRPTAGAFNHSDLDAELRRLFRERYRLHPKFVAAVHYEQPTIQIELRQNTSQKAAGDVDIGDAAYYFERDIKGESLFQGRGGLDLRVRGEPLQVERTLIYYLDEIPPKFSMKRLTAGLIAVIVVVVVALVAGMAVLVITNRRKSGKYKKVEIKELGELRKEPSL
As for the experimental part:
as §1

In another test the target is T5, HEK-TROP2 Δ27-44.
T5 construct: also called TROP2 delta 27-44
T5 membrane protein on transfected HEK cells: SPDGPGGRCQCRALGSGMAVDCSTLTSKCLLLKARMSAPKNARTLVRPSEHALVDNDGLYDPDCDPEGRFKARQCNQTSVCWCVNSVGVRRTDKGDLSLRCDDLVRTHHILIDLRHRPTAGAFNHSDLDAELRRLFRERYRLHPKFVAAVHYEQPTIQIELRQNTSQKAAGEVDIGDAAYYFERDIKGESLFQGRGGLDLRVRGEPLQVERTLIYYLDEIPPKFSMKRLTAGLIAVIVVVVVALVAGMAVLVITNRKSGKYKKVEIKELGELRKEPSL
As for the experimental part:
as §1

A further test has as its target T6, HEK-TROP2 Δ27-85 (human, UniProt P09758).
T6 construct: deletion of residues 27-85, transiently expressed on HEK cells
T6 sequence (membrane protein on transfected HEK cells, looked up): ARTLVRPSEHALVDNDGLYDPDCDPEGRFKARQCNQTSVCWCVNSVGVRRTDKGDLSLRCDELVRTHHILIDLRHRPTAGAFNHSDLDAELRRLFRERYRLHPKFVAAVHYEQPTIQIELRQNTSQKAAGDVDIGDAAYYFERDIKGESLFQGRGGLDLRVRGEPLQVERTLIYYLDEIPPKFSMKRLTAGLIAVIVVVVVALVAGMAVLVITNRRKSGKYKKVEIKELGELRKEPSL
As for the experimental part: as §1

The target in the next test is T7, HEK-TROP2 Δ27-36.
T7 construct: also called TROP2 delta 27-36
T7 membrane protein on transfected HEK cells: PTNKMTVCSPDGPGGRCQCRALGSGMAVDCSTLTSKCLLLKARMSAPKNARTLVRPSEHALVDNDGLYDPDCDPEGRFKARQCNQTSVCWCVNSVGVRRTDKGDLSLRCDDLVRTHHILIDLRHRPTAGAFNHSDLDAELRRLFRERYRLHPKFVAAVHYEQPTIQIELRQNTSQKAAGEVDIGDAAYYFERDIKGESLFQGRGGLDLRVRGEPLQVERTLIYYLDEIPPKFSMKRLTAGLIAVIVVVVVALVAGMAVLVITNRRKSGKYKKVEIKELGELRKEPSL
As for the experimental part: as §1

We go through six molecules from US20240360242A1 (KISOJI BIOTECHNOLOGY, published 2024).

B1: KD002 (antibody, human IgG1, V domains shown)
VH: QVQLQESGGGMVQVGGSLRLSCAASGFPFSSADMSWVRQAPGKGPEWVSYINADGSKTYYPDSVKGRFTISRDNAKNTLYLLMNNLKPEDTALYRCARAKLTDTHYVEDYWGQGTQVTVSS
notes: also called anti-TROP2 sdAb KD002
For the molecule B1, the binding result with HEK-TROP2 Δ27-96 is reported as “no binding (tested: 100 nM)”; in test [1], “no binding (tested: 100 nM)”; with HEK-TROP2 Δ27-114, “no binding (tested: 100 nM)”; in the test with HEK-TROP2 Δ27-126, “no binding (tested: 100 nM)”; in the test with HEK-TROP2 Δ27-44 it was “binds”; with HEK-TROP2 Δ27-85, “no binding (tested: 100 nM)”. In the test with HEK-TROP2 Δ27-36, the binding result is reported as “binds”.

B2: KD003 (antibody, human IgG1, V domains shown)
VH: QVQLQESGGGMVQPGGSLRLSCAASGFTFSNYDMSWVRQAPGKGPEWVSYINAGGSNTDYPDSVKGRFTISRDNAKNMLYLLMNNLKPEDTALYRCARAKLTDTHYVEDYWGQGTQVTVSS
notes: also called anti-TROP2 sdAb KD003
For B2, the binding result with HEK-TROP2 Δ27-96 is reported as “no binding (tested: 100 nM)”; in test [1], “no binding (tested: 100 nM)”; in the test with HEK-TROP2 Δ27-114, “no binding (tested: 100 nM)”; in the test with HEK-TROP2 Δ27-126 it was “no binding (tested: 100 nM)”; with HEK-TROP2 Δ27-44, “binds”; in the test with HEK-TROP2 Δ27-85, “no binding (tested: 100 nM)”. Moreover, the binding result in the test with HEK-TROP2 Δ27-36 was “binds”.

B3: KD001 (antibody, human IgG1, V domains shown)
VH: QVQLQESGGGMVHPGGSLRLSCAASGFTFSGSDMSWVRQAPGKGPEWVSYITSGGTTYYPDSVKGRFTISRDNAKNTLYLQMNSLTPDDTALYRCAKARLTDSHYVEDAWGQGTQVTVSS
notes: also called anti-TROP2 sdAb KD001
For the molecule B3, the binding result is “no binding (tested: 100 nM)” with HEK-TROP2 Δ27-96; “no binding (tested: 100 nM)” in test [1]; “no binding (tested: 100 nM)” with HEK-TROP2 Δ27-114; “no binding (tested: 100 nM)” with HEK-TROP2 Δ27-126; “binds” in the test with HEK-TROP2 Δ27-44; “no binding (tested: 100 nM)” with HEK-TROP2 Δ27-85. Moreover, the binding result in the test with HEK-TROP2 Δ27-36 was “binds”.

B4: KD004 (antibody, human IgG1, V domains shown)
VH: QVQLQESGGGLVQPGRSLRLSCAASGFTFSGSDMSWVRQAPGKGPEWVSYITGSGTTYYPDSVKGRFTTSRDNAKNMLYLQMNSLKPDDTALYRCAKARLTDSHYVEDAWGQGTQVTVSS
notes: also called anti-TROP2 sdAb KD004
Turning to B4, the binding result in the test with HEK-TROP2 Δ27-96 is listed as “no binding (tested: 100 nM)”; in test [1] it was “no binding (tested: 100 nM)”; in the test with HEK-TROP2 Δ27-114, “no binding (tested: 100 nM)”; with HEK-TROP2 Δ27-126 it was “no binding (tested: 100 nM)”; with HEK-TROP2 Δ27-44 it was “binds”; in the test with HEK-TROP2 Δ27-85 it was “no binding (tested: 100 nM)”. The binding result in the test with HEK-TROP2 Δ27-36 is listed as “binds”.

B5: KD005 (antibody, human IgG1, V domains shown)
VH: QVQLQESGGGLVEAGGSLRLSCAASGFTFSGSDMSWVRQAPGKGPEWVSYITSGGTTYYPDSVKGRFTISRDNAKNTLYLQMNSLKPDDTALYRCAKSRLTDSHYVEDAWGQGTQVTVSS
notes: also called anti-TROP2 sdAb KD005
Regarding B5, the binding result in the test with HEK-TROP2 Δ27-96 is reported as “no binding (tested: 100 nM)”; in test [1], “no binding (tested: 100 nM)”; with HEK-TROP2 Δ27-114, “no binding (tested: 100 nM)”; in the test with HEK-TROP2 Δ27-126 it was “no binding (tested: 100 nM)”; with HEK-TROP2 Δ27-44, “binds”; in the test with HEK-TROP2 Δ27-85, “no binding (tested: 100 nM)”. Moreover, the binding result in the test with HEK-TROP2 Δ27-36 is on record as “binds”.

B6: KD007 (antibody, human IgG1, V domains shown)
VH: QVQLQESGGGLVQPGGSLRLSCAASGFAFSFYAMAWYRQAPGKQRDMVATITAYGNTNYADSVKGRFTTSRDNAKNTVYLQMNSLKPEDTAVYVCNANLPSASHNYWGQGTQVTVSS
notes: also called anti-TROP2 sdAb KD007
For B6, the binding result (in the test with HEK-TROP2 Δ27-96; in test [1]; in the test with HEK-TROP2 Δ27-114; with HEK-TROP2 Δ27-126; with HEK-TROP2 Δ27-44; with HEK-TROP2 Δ27-85) was “no binding (tested: 100 nM)” in each case. Moreover, the binding result with HEK-TROP2 Δ27-36 is reported as “no binding (tested: 100 nM)”.
